Assay results as given in patent US20250115680A1 (PROFOUNDBIO US, published 2025).
One block for each binder: values may come before it.

Assays:
[1] = biological target: T1, human PTK7 extra-cellular domain (ECD) linked to His tag (human, UniProt Q13308 31-704); assay: ELISA screening of hybridoma supernatants on human PTK7-his
T1 construct: extracellular domain; also called hPTK7-his; human PTK7-his protein; not shown: His tag
T1 sequence (looked up): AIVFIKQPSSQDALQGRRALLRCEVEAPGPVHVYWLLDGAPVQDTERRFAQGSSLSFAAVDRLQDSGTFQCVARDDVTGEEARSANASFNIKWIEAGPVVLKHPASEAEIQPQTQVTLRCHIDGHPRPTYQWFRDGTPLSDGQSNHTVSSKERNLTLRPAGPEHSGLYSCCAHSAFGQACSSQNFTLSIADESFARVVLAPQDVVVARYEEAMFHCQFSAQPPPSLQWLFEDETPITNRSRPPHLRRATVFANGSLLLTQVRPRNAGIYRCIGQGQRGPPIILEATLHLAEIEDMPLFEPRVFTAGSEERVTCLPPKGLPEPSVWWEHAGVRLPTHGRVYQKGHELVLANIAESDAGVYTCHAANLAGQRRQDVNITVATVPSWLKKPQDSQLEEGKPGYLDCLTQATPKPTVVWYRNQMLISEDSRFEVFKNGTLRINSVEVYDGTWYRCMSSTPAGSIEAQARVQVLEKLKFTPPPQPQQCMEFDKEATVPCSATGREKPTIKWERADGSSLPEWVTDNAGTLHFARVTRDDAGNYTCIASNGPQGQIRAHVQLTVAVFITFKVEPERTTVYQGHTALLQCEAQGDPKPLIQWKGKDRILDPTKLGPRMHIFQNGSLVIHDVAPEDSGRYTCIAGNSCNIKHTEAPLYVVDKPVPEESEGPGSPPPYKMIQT
Experimental: The cells were resuspended with an appropriate amount of electroporation buffer to ensure the cell concentration of about 2×10⁷ cells/mL. The cell suspension was added to a 9 mL electroporation tank for fusion. After fusion, the cell suspension was transferred to 20 mL RPMI 1640 complete medium containing 20% FBS and then left at room temperature for 20 min. The fused cells were resuspended with RPMI 1640 medium containing 1×HAT, 1×BIOMYC3, and 20% FBS. The cell suspension was added to several 96-well cell culture plates at 100 ul/well to ensure that the cell volume per well was about 5×10⁴ cells/well, and the plates were placed in a 37° C. cell incubator. After 7 days, additional 100 μL of RPMI 1640 complete medium containing 20% FBS, 1×HAT, and 1×BIOMYC-3 was added to each well. After 10 days, the cell culture supernatants from hybridoma parent clones were collected and used for screening by binding to human and cynomolgus monkey PTK7-his protein by ELISA.

[2] = biological target: T2, human PTK7 on the surface of PTK7-expressing tumor cell lines (human, UniProt Q13308 31-1070); assay: flow cytometry on MDA-MB-468 cells
T2 construct: whole, on cells
T2 sequence (looked up): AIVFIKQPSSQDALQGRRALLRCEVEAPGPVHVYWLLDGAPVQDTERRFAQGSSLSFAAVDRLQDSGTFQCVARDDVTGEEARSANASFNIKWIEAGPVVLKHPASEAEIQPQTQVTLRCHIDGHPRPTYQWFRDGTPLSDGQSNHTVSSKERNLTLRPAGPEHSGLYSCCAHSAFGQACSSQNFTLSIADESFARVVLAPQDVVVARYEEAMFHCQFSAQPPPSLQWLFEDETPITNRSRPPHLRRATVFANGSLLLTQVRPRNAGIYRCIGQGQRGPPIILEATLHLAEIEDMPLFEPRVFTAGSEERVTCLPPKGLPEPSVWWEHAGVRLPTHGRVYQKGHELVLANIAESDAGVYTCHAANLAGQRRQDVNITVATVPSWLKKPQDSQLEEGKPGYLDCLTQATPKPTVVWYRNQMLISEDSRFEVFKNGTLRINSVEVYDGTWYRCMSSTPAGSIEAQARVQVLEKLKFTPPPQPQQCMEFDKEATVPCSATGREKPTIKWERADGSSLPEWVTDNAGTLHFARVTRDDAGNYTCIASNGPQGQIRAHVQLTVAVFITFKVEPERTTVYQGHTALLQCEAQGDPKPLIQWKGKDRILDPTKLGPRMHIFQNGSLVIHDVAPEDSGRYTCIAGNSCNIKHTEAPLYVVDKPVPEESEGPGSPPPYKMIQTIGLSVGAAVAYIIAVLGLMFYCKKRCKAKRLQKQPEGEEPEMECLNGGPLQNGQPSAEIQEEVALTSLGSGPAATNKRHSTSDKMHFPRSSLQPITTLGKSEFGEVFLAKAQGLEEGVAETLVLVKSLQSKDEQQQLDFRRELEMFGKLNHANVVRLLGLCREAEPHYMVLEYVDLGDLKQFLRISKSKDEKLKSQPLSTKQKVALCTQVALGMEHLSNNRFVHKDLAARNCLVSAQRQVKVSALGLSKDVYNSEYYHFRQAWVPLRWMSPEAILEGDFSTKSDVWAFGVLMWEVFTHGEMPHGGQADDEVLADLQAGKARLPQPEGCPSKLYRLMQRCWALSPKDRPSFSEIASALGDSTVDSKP

[3] = biological target: T2, human PTK7 on the surface of …; assay: cell-based or functional assay

B1: murine antibody m2C5 (antibody, V domains shown)
VH: EVQLLSSGPELVTPGASVKISCKASGYTFTDYYINWLKQSHGKSLEWIGDINPNSGGPVYNQKFMAKATLTVDKTSNTAYMELRSLTSEDSAVYYCARGDYYGSNYNYWGQGTTLTVSS
VL: DILLTQSPAILSVSPGERVSFSCRASQNIGTSIHWYQQRTNGSPRLLIKFASESISGIPSRFSGSGSGTDFALTINSVESEDIADYYCQQSNNWPYTFGGGTKLEIK
notes: Mouse hybridoma clone, tested as culture supernatant
- binding result [1]: binds
- binding result [2]: binds

B4: PRO1107 (2C8-LD343 (8)) (other)
VH: QIQLVQSGAEVKKPGASVKVSCKASGYTFTTYGMSWVRQAPGQGLEWMGWINTHSGVPTYVDEFKGRVTMTLDTSTSTAYMELSSLRSEDTAVYYCARSPFDYGSRGAWFVYWGQGTTVTVSS
VL: DVVMTQSPDSLAVSLGERATINCRSSQSIVHNSGDTYLEWYQQKPGQPPKLLIYKVSNRFPGVPDRFSGSGSGTDFTLTISSLQAEDLAVYYCFQGSHVPWTFGGGTKVEIK
modifications: drug-linker LD343 (MMAE payload) coupled to cysteines of the TCEP-reduced antibody; DAR 7.5 by LC-MS; the chain carrying each drug is not stated
- IC50 of in vitro cytotoxicity (Cell-titre Glo, 96 h), Detroit 562 cells [3]: 8.2 nM
- IC50 of in vitro cytotoxicity (Cell-titre Glo, 96 h), MDA-MB-468 cells [3]: 0.14 pM
- IC50 of in vitro cytotoxicity (Cell-titre Glo, 96 h), OVCAR-3 cells [3]: 1.1 pM
- IC50 of in vitro cytotoxicity (Cell-titre Glo, 96 h), PA-1 cells [3]: 8 pM
- IC50 of in vitro cytotoxicity (Cell-titre Glo, 96 h), SNG-M cells [3]: 20 pM
- IC50 of in vitro cytotoxicity (Cell-titre Glo, 96 h), SW780 cells [3]: 27.4 nM

Results, then the binder that gave them:

- binding result [1]: binds
- binding result [2]: binds
B2: murine antibody m2C8 (antibody, V domains shown)
VH: QIQLVQSGPELKKPGETVKISCKASGYTFTTYGMSWVKQAPGKGLKWMGWINTHSGVPTYVDEFKGRSAFSLETSASTAYLQINNLKNEDTATYFCARSPFDYGSRGAWFVYWGQGTLVTVSS
VL: DVLMTQTPLSLPVSLGDQASISCRSSQSIVHNNGDTYLEWYLQKPGQSPKLLIYKVSNRFPGVPDRFSGSGSGTDFTLKISRVEAEDLGLYYCFQGSHVPWTFGGGTKLEIK
notes: as for B1

- binding result [1]: binds
- binding result [2]: binds
B3: murine antibody m13C4 (antibody, V domains shown)
VH: EVKLVESGGGLVKPGGSLKLSCAASGFAFSTYDMFWFRQTPEKRLEWVATISSGGGYTYYPGSVKGRFTISRDNARNTLYLQMSSLRSEDTALYYCVRPLLRDSYFYFDVWGAGTTVTVSS
VL: DIVMTQSPAIMSTSPGEKVTMTCRASSSVSSSYLHWYQQKSGASPKLWIFRTSNLASGVPARFSGSGSGTSYSLTISSVEAEDAATYYCQQYSGYPLTFGAGTKLELK
notes: as for B1
